Source: patent publication US12440565

Molecular target: CD40 on the surface of mature dendritic cells (mDC) (human) (UniProt P25942)
Test: cell-based or functional assay

Chain of CD40 on the surface of mature dendritic cells (mDC) (human) (P25942 21-277): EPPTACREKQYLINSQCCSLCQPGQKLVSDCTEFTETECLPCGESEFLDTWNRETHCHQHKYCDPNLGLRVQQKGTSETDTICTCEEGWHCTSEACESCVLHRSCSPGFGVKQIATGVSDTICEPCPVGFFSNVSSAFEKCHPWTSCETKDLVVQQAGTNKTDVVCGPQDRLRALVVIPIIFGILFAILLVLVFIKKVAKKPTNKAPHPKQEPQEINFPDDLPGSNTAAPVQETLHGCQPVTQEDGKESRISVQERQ

CD83+ (%) of mDC, agonist at 2 µg/mL (control group 81.00): 88.2%
IL-12p70 (pg/mL), agonist at 2 µg/mL (control group 50.0): 874 pg/mL
Substance: CD40L recombinant protein (from UniProt P29965 113-261) (ligand)
